According to article PMC8164090:

Target: Cnn-C^S186D scaffolds (Cnn-C-PReM^m with S186 phosphomimicked) (Drosophila melanogaster)

**Q.** With “γ-tubulin37C-mCherry (from UniProt P42271 1-457) (natural protein)” as the substance, how does the recruitment of γ-tubulin to scaffolds in unfertilized eggs, fold over Cnn-C scaffolds read?
**A.** 3.8 fold
